Legend:
Experiment in all cases: cell_activity
[1] = tested on: CCR5 ZFN pair, wild-type ZC linker (8266 with partner) (artificial); settings: average of 2
[2] = tested on: CCR5 ZFN pair, L6a linker (artificial); settings: average of 2
[3] = tested on: CCR5 ZFN pair, L7a linker (artificial); settings: average of 2
[4] = tested on: mROSA ZFN pair, Wt/L7a linkers (artificial); settings: Neuro2A, CEL-I; mock 0.4
[5] = tested on: mROSA ZFN pair, Wt/Wt linkers (artificial); settings: Neuro2A, CEL-I; replicates 23.2, 18.7; mock 0.4
[6] = tested on: rat IgM ZFN pair, L7a linker (artificial); settings: rat C6 cells, CEL-I
[7] = tested on: rat IgM ZFN pair, ZC linkers (artificial); settings: rat C6 cells, CEL-I

Row | Substance | activity [1] [% NHEJ] | activity [2] [% NHEJ] | activity [3] [% NHEJ] | other results
1 | CCR5 target, 4 bp gap | 1.2 | – | – | –
2 | CCR5 target, 5 bp gap | 35 | 39.3 | – | –
3 | CCR5 target, 6 bp gap | 11.1 | 25.4 | 31.8 | –
4 | GTCATCCTCATCCTGAGTTTAAACTGCAAAAG (double strand) [CCR5 target, 8 bp gap] | – | – | 6.1 | –
5 | GTCATCCTCATCCTGGTTTAAACTGCAAAAG (double strand) [CCR5 target, 7 bp gap] | – | 5.1 | 39.6 | –
6 | mROSA target, 6 bp gap | – | – | – | activity [4]: 7.5 % NHEJ; activity [5]: 22.6 % NHEJ
7 | rat IgM target, 6 bp gap | – | – | – | activity [6]: 2.43 % NHEJ; activity [7]: 1.93 % NHEJ

Reference: patent US20150064789
